# Results: patent publication US20250302962A1, “BIOCONJUGATE COMPRISING A PHOTOSENSITIZER UNIT, METHOD FOR ITS PREPARATION AND USE THEREOF” (UNIVERSITE DE BORDEAUX, priority 2021, published 2025)
# Columns and labels:
# Assay type in all cases: physicochemical
# [1] = Singlet oxygen quantum yield of the phthalocyanine; conditions: measured in dimethylsulfoxide
# From the text: It has particularly outstanding photo-physical properties. […] Singlet oxygen quantum yield of this phthalocyanine, measured in dimethylsulfoxide, mounts up to ϕΔ=0.72. The presence of the tert-butyl groups not only minimizes the formation of molecular aggregates, but also increases the solubility of the compound in organic solvents.
# [2] = Turbidity assay, onset transition temperature (Tt) of ELP and TT1 bioconjugates in PBS; conditions: for Tt in PBS: PBS pH 7.4, onset transition temperature
# Method: UV-Vis spectroscopy: The transition temperatures (Tt) are determined by following the turbidity at 600 or 500 nm absorption versus temperature on Agilent Cary 100 UV-Vis spectrophotometer equipped with a multicell thermo-electric temperature controller. Turbidity is measured over a temperature range from 10 to 60° C. at 1° C. min^−1 of a scan rate before and after the conjugation reaction at three concentrations of phthalocyanine (10, 20 and 30 μM) in phosphate buffer (PBS, pH 7.4).
# The thermo-responsive character of ELP, before and after TT1 conjugation, is measured by turbidity assays in phosphate buffer (PBS, pH 7.4) following the absorbance at 600 and 500 nm, respectively, over a temperature range from 10 to 60° C.
# The same analysis is carried out for TT1-ELP(O) (obtained by chemical oxidation of methionyl groups) and TT1-ELP^PhOx (obtained by oxidation triggered by photo-irradiation of methionyl groups).
# [3] = Dynamic light scattering size distribution of TT1-ELP and TT1-ELP^PhOx
# Method: Dynamic light scattering: The DLS measurements of TT1-ELP (at 20° C. and 37° C.) and TT1-ELP^PhOx (at 37° C.) are performed on a Nano ZS 90 instrument (HeNe laser 632.8 nm, Malvern) at a 90° angle at a constant position in the cuvette (constant scattering volume at 30 μM concentration in 1×PBS, pH 7.4). The values of Z-average hydrodynamic diameter (DH) and polydispersity index (PDI) are obtained from the 2nd order cumulant fit using a CONTIN-like algorithm.
# In order to mimic the self-assembly and photooxidation-triggered disassembly profile of TT1-ELP, dynamic light scattering (DLS) measurements are performed in physiological conditions (PBS pH 7.4 at 37° C.) on TT1-ELP and TT1-ELP^PhOx.
# Due to the stacking tendency of TT1 upon direct dissolution of TT1-ELP in PBS at ambient temperature, 60 nm micelles with narrow size distribution (PDI 0.2) are observed in DLS measurement conducted at 165° angle via 657 nm laser (FIG. 5-A)).
# [4] = direct dissolution in PBS, ambient temperature, 165° angle, 657 nm laser
Molecule,Singlet oxygen quantum yield ϕΔ [1],Tt in PBS ([2]; 10 μM),Tt in PBS ([2]; 20 μM),"solubility ([2]; 10, 20 and 30 μM in PBS pH 7.4 at 10° C.)","drop of Tt after conjugation of TT1 ([2]; versus ELP, PBS pH 7.4)","particle size (hydrodynamic diameter) ([3]; above Tt, 37° C., PBS pH 7.4)","PDI [3, 4]","micelle size [3, 4]","aggregation state by DLS ([3]; temperature dropped back to 20° C., PBS pH 7.4)"
"9(10),16(17),23(24)-Tri-tert-butyl-2-carboxy-5,28:14,19-diimino-7,12:21,26-dinitrilotetrabenzo[c,h,m,r][1,6,11,16]tetraazacycloeicosinato-(2)-N^29,N^30,N^31,N^32zinc(II) [TT1]",0.72,–,–,–,–,–,–,–,–
"TT1-ELP: phthalocyanine TT1 coupled by CuAAC triazole linker to the N-terminus of ELP (SEQ ID No: 11) (conjugate, N-terminal phthalocyanine TT1 via triazole; Elastin-like polypeptide) MWVPGVGVPGMGVPGVGVPGVGVPGVGVPGMGVPGVGVPGVGVPGVGVPGMGVPGVGVPGVGVPGVGVPGMGVPGVGVPGVGVPGVGVPGMGVPGVGVPGVGVPGVGVPGMGVPGVGVPGVGVPGVGVPGMGVPGVGVPGVGVPGVGVPGMGVPGVGVPGVGVPGVGVPGMGVPGVGVPGVGVPGVGVPGMGVPGVGVPGVG",–,29 °C,28 °C,fully soluble,approximately 10 °C,1.5 μm,0.2,60 nm,disassembly of these aggregates
